According to US20260015399A1 (Boehringer Ingelheim, published 2026):
*1 amine or outer side, *2 acyl side, *3 side chain or, on linkers, in order; H or OH if unused. Side-chain parts run from the residue outwards. The star is where a group is joined. C18 diacid = O=C(O)CCCCCCCCCCCCCCCCC(=O)*; γGlu = O=C(O)[C@H](CCC(=O)[*:2])N[*:1]; Isovaleryl = CC(C)CC(=O)*; Ahx = NCCCCCC(=O)O

T1: human NPY2 receptor (human, UniProt P49146 1-381)
T1 sequence (looked up): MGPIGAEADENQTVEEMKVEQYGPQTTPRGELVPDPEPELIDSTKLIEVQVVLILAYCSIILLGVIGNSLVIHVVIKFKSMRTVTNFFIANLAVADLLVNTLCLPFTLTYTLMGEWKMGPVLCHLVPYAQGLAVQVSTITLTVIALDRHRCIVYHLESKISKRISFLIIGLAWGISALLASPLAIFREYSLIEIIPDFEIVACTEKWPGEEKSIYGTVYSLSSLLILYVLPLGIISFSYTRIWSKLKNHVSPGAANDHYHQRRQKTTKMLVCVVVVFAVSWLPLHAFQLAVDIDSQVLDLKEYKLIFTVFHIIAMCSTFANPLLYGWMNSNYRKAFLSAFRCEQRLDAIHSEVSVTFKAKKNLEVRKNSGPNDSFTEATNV

T2: human NPY1 receptor (human, UniProt P25929 1-384)
T2 sequence (looked up): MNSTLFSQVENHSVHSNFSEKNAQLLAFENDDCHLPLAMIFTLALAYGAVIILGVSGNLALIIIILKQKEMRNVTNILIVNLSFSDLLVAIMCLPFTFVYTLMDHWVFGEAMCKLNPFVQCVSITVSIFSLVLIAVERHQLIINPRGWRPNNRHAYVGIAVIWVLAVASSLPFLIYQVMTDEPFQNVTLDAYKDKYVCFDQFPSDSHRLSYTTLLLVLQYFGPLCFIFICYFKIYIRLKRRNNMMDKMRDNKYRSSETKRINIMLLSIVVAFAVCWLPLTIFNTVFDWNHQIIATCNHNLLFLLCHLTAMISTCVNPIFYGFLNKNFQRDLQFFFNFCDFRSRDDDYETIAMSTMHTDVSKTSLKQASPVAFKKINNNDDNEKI

T3: human NPY5 receptor (human, UniProt Q15761 1-445)
T3 sequence (looked up): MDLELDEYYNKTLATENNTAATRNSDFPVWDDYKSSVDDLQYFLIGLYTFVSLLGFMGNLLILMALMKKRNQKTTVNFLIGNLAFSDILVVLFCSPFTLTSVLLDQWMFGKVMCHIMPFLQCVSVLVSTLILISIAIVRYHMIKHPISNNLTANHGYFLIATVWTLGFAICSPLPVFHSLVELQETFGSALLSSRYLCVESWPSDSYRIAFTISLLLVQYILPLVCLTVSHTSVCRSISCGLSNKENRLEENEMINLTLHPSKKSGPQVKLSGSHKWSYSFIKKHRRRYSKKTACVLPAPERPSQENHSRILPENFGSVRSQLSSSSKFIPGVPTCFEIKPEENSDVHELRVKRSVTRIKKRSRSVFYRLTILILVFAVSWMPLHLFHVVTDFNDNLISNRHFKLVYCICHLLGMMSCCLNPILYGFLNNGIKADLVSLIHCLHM


Legend:
human NPY2 receptor [1] = target: T1, human NPY2 receptor; assay: cell-based or functional assay
human NPY1 receptor = target: T2, human NPY1 receptor; assay: cell-based or functional assay
human NPY4 receptor = human NPY4 receptor (human, UniProt P50391 1-375); assay: cell-based or functional assay
human NPY4 receptor, sequence (P50391 whole entry): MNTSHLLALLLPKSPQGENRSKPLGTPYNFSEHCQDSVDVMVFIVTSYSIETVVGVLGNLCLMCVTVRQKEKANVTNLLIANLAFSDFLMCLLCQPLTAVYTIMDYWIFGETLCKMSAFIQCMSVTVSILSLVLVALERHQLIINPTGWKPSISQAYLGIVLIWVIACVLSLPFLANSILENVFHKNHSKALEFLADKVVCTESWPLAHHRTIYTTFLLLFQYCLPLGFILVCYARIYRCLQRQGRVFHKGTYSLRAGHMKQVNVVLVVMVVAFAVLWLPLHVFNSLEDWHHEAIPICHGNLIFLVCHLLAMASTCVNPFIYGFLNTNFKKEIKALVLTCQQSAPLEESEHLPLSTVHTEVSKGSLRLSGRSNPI

human NPY5 receptor = target: T3, human NPY5 receptor; assay: cell-based or functional assay
human NPY2 receptor [2] = target: T1, human NPY2 receptor; assay: RLB: displacement of 125I-PYY(1-36) from hNPY2R membranes

EC50, HTRF cAMP Gi assay (human NPY2 receptor [1]) | EC50, HTRF cAMP Gi assay (human NPY1 receptor) | EC50, HTRF cAMP Gi assay (human NPY4 receptor) | EC50, HTRF cAMP Gi assay (human NPY5 receptor) | Ki (human NPY2 receptor [2]) | Binder
0.138 nM | > 5000 nM | > 5000 nM | > 5000 nM | 1.07 nM | Isovaleryl-APEK([Ahx-γGlu-C18 diacid])PEADATPEELQRYYVALRHYYNWLTRQRY-NH2 (SMILES CC(C)CC(=O)N[C@@H](C)C(=O)N1CCC[C@H]1C(=O)N[C@@H](CCC(=O)O)C(=O)N[C@@H](CCCCNC(=O)CCCCCNC(=O)CC[C@H](NC(=O)CCCCCCCCCCCCCCCCC(=O)O)C(=O)O)C(=O)N1CCC[C@H]1C(=O)N[C@@H](CCC(=O)O)C(=O)N[C@@H](C)C(=O)N[C@@H](CC(=O)O)C(=O)N[C@@H](C)C(=O)N[C@H](C(=O)N1CCC[C@H]1C(=O)N[C@@H](CCC(=O)O)C(=O)N[C@@H](CCC(=O)O)C(=O)N[C@@H](CC(C)C)C(=O)N[C@@H](CCC(N)=O)C(=O)N[C@@H](CCCNC(=N)N)C(=O)N[C@@H](Cc1ccc(O)cc1)C(=O)N[C@@H](Cc1ccc(O)cc1)C(=O)N[C@H](C(=O)N[C@@H](C)C(=O)N[C@@H](CC(C)C)C(=O)N[C@@H](CCCNC(=N)N)C(=O)N[C@@H](Cc1c[nH]cn1)C(=O)N[C@@H](Cc1ccc(O)cc1)C(=O)N[C@@H](Cc1ccc(O)cc1)C(=O)N[C@@H](CC(N)=O)C(=O)N[C@@H](Cc1c[nH]c2ccccc12)C(=O)N[C@@H](CC(C)C)C(=O)N[C@H](C(=O)N[C@@H](CCCNC(=N)N)C(=O)N[C@@H](CCC(N)=O)C(=O)N[C@@H](CCCNC(=N)N)C(=O)N[C@@H](Cc1ccc(O)cc1)C(N)=O)[C@@H](C)O)C(C)C)[C@@H](C)O) [Compound 136]
0.331 nM | > 5000 nM | > 5000 nM | > 5000 nM | 3.42 nM | Isovaleryl-APEK([Ahx-γGlu-C18 diacid])PEEEASPEEIQRYYVSLRHYYNWLTRQRY-NH2 (SMILES CC[C@H](C)[C@H](NC(=O)[C@H](CCC(=O)O)NC(=O)[C@H](CCC(=O)O)NC(=O)[C@@H]1CCCN1C(=O)[C@H](CO)NC(=O)[C@H](C)NC(=O)[C@H](CCC(=O)O)NC(=O)[C@H](CCC(=O)O)NC(=O)[C@H](CCC(=O)O)NC(=O)[C@@H]1CCCN1C(=O)[C@H](CCCCNC(=O)CCCCCNC(=O)CC[C@H](NC(=O)CCCCCCCCCCCCCCCCC(=O)O)C(=O)O)NC(=O)[C@H](CCC(=O)O)NC(=O)[C@@H]1CCCN1C(=O)[C@H](C)NC(=O)CC(C)C)C(=O)N[C@@H](CCC(N)=O)C(=O)N[C@@H](CCCNC(=N)N)C(=O)N[C@@H](Cc1ccc(O)cc1)C(=O)N[C@@H](Cc1ccc(O)cc1)C(=O)N[C@H](C(=O)N[C@@H](CO)C(=O)N[C@@H](CC(C)C)C(=O)N[C@@H](CCCNC(=N)N)C(=O)N[C@@H](Cc1c[nH]cn1)C(=O)N[C@@H](Cc1ccc(O)cc1)C(=O)N[C@@H](Cc1ccc(O)cc1)C(=O)N[C@@H](CC(N)=O)C(=O)N[C@@H](Cc1c[nH]c2ccccc12)C(=O)N[C@@H](CC(C)C)C(=O)N[C@H](C(=O)N[C@@H](CCCNC(=N)N)C(=O)N[C@@H](CCC(N)=O)C(=O)N[C@@H](CCCNC(=N)N)C(=O)N[C@@H](Cc1ccc(O)cc1)C(N)=O)[C@@H](C)O)C(C)C) [Compound 193]

The next lines start with the binder.

Binder | EC50, HTRF cAMP Gi assay (human NPY2 receptor [1]) | EC50, HTRF cAMP Gi assay (human NPY1 receptor) | EC50, HTRF cAMP Gi assay (human NPY4 receptor) | EC50, HTRF cAMP Gi assay (human NPY5 receptor) | Ki (human NPY2 receptor [2])
Isovaleryl-APEK([Ahx-γGlu-C18 diacid])PEEAATPEELQRYYVSLRHYYNWLTRQRY-NH2 (SMILES CC(C)CC(=O)N[C@@H](C)C(=O)N1CCC[C@H]1C(=O)N[C@@H](CCC(=O)O)C(=O)N[C@@H](CCCCNC(=O)CCCCCNC(=O)CC[C@H](NC(=O)CCCCCCCCCCCCCCCCC(=O)O)C(=O)O)C(=O)N1CCC[C@H]1C(=O)N[C@@H](CCC(=O)O)C(=O)N[C@@H](CCC(=O)O)C(=O)N[C@@H](C)C(=O)N[C@@H](C)C(=O)N[C@H](C(=O)N1CCC[C@H]1C(=O)N[C@@H](CCC(=O)O)C(=O)N[C@@H](CCC(=O)O)C(=O)N[C@@H](CC(C)C)C(=O)N[C@@H](CCC(N)=O)C(=O)N[C@@H](CCCNC(=N)N)C(=O)N[C@@H](Cc1ccc(O)cc1)C(=O)N[C@@H](Cc1ccc(O)cc1)C(=O)N[C@H](C(=O)N[C@@H](CO)C(=O)N[C@@H](CC(C)C)C(=O)N[C@@H](CCCNC(=N)N)C(=O)N[C@@H](Cc1c[nH]cn1)C(=O)N[C@@H](Cc1ccc(O)cc1)C(=O)N[C@@H](Cc1ccc(O)cc1)C(=O)N[C@@H](CC(N)=O)C(=O)N[C@@H](Cc1c[nH]c2ccccc12)C(=O)N[C@@H](CC(C)C)C(=O)N[C@H](C(=O)N[C@@H](CCCNC(=N)N)C(=O)N[C@@H](CCC(N)=O)C(=O)N[C@@H](CCCNC(=N)N)C(=O)N[C@@H](Cc1ccc(O)cc1)C(N)=O)[C@@H](C)O)C(C)C)[C@@H](C)O) [Compound 128] | 0.344 nM | > 5000 nM | > 5000 nM | > 5000 nM | 2.91 nM
Isovaleryl-APEK([Ahx-γGlu-C18 diacid])PEADATPEEIQRYYVALRHYYNWLTRQRY-NH2 (SMILES CC[C@H](C)[C@H](NC(=O)[C@H](CCC(=O)O)NC(=O)[C@H](CCC(=O)O)NC(=O)[C@@H]1CCCN1C(=O)[C@@H](NC(=O)[C@H](C)NC(=O)[C@H](CC(=O)O)NC(=O)[C@H](C)NC(=O)[C@H](CCC(=O)O)NC(=O)[C@@H]1CCCN1C(=O)[C@H](CCCCNC(=O)CCCCCNC(=O)CC[C@H](NC(=O)CCCCCCCCCCCCCCCCC(=O)O)C(=O)O)NC(=O)[C@H](CCC(=O)O)NC(=O)[C@@H]1CCCN1C(=O)[C@H](C)NC(=O)CC(C)C)[C@@H](C)O)C(=O)N[C@@H](CCC(N)=O)C(=O)N[C@@H](CCCNC(=N)N)C(=O)N[C@@H](Cc1ccc(O)cc1)C(=O)N[C@@H](Cc1ccc(O)cc1)C(=O)N[C@H](C(=O)N[C@@H](C)C(=O)N[C@@H](CC(C)C)C(=O)N[C@@H](CCCNC(=N)N)C(=O)N[C@@H](Cc1c[nH]cn1)C(=O)N[C@@H](Cc1ccc(O)cc1)C(=O)N[C@@H](Cc1ccc(O)cc1)C(=O)N[C@@H](CC(N)=O)C(=O)N[C@@H](Cc1c[nH]c2ccccc12)C(=O)N[C@@H](CC(C)C)C(=O)N[C@H](C(=O)N[C@@H](CCCNC(=N)N)C(=O)N[C@@H](CCC(N)=O)C(=O)N[C@@H](CCCNC(=N)N)C(=O)N[C@@H](Cc1ccc(O)cc1)C(N)=O)[C@@H](C)O)C(C)C) [Compound 184] | 0.232 nM | > 5000 nM | > 5000 nM | > 5000 nM | 0.64 nM
Isovaleryl-APEK([Ahx-γGlu-C18 diacid])PEEAASPEEIQRYYVSLRHYYNWLTRQRY-NH2 (SMILES CC[C@H](C)[C@H](NC(=O)[C@H](CCC(=O)O)NC(=O)[C@H](CCC(=O)O)NC(=O)[C@@H]1CCCN1C(=O)[C@H](CO)NC(=O)[C@H](C)NC(=O)[C@H](C)NC(=O)[C@H](CCC(=O)O)NC(=O)[C@H](CCC(=O)O)NC(=O)[C@@H]1CCCN1C(=O)[C@H](CCCCNC(=O)CCCCCNC(=O)CC[C@H](NC(=O)CCCCCCCCCCCCCCCCC(=O)O)C(=O)O)NC(=O)[C@H](CCC(=O)O)NC(=O)[C@@H]1CCCN1C(=O)[C@H](C)NC(=O)CC(C)C)C(=O)N[C@@H](CCC(N)=O)C(=O)N[C@@H](CCCNC(=N)N)C(=O)N[C@@H](Cc1ccc(O)cc1)C(=O)N[C@@H](Cc1ccc(O)cc1)C(=O)N[C@H](C(=O)N[C@@H](CO)C(=O)N[C@@H](CC(C)C)C(=O)N[C@@H](CCCNC(=N)N)C(=O)N[C@@H](Cc1c[nH]cn1)C(=O)N[C@@H](Cc1ccc(O)cc1)C(=O)N[C@@H](Cc1ccc(O)cc1)C(=O)N[C@@H](CC(N)=O)C(=O)N[C@@H](Cc1c[nH]c2ccccc12)C(=O)N[C@@H](CC(C)C)C(=O)N[C@H](C(=O)N[C@@H](CCCNC(=N)N)C(=O)N[C@@H](CCC(N)=O)C(=O)N[C@@H](CCCNC(=N)N)C(=O)N[C@@H](Cc1ccc(O)cc1)C(N)=O)[C@@H](C)O)C(C)C) [Compound 150] | 0.243 nM | > 5000 nM | > 5000 nM | > 5000 nM | 2.18 nM
